Measured values taken from PMC3401373, “ATM-Dependent Downregulation of USP7/HAUSP by PPM1G Activates p53 Response to DNA Damage” (Molecular Cell, 2012).

Molecular target: T1, His-tagged USP7S (Ser18-containing isoform of USP7/HAUSP), purified recombinant (human, UniProt Q93009 1-1102, phosphoserine at 18 as purified from insect cells; not stated whether the phosphorylated or the dephosphorylated form stood in the pull-down of Figure 4D)
T1 construct: USP7 (HAUSP), human, the isoform that contains serine 18 (USP7S); also called pUSP7S; source: recombinant, purified from insect cells
T1 sequence (Q93009 whole entry, canonical isoform): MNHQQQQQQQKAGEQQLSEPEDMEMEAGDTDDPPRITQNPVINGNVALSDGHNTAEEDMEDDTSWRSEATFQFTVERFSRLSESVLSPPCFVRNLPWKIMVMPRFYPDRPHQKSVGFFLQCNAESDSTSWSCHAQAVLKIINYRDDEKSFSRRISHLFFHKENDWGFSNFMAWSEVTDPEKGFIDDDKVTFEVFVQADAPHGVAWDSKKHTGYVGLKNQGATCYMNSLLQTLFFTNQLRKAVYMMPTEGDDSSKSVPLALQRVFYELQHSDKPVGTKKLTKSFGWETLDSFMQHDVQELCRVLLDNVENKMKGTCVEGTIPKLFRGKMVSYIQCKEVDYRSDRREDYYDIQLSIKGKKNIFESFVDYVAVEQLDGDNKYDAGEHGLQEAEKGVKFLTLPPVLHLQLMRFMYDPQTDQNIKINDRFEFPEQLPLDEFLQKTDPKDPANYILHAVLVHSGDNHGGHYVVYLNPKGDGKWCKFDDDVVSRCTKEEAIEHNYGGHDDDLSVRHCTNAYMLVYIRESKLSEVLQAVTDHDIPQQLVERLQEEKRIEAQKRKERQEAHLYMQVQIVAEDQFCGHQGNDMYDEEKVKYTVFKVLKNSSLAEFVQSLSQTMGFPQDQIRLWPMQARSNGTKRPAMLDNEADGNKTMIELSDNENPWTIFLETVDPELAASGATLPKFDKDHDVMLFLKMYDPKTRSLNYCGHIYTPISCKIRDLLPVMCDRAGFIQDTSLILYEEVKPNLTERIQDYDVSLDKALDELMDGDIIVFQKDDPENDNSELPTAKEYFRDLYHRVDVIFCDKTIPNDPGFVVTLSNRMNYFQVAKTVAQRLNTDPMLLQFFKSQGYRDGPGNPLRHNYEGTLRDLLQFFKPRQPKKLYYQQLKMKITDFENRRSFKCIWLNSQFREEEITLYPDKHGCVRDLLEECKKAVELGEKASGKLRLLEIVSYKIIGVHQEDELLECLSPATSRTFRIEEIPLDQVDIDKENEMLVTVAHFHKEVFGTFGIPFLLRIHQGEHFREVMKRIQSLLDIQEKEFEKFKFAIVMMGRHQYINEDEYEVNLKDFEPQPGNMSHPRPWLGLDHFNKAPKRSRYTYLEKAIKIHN
Experiment: pull-down; equal amounts (0.42 pmol) of purified His-tagged USP7S and PPM1G incubated at room temperature for 30 min; USP7S pulled down with magnetic Ni-NTA agarose beads (magnetic beads as mock control); western blot with USP7S and PPM1G antibodies
Settings: both partners purified

B1: PPM1G, purified recombinant (enzyme, human, UniProt O15355 1-546, looked up)
chain: MGAYLSQPNTVKCSGDGVGAPRLPLPYGFSAMQGWRVSMEDAHNCIPELDSETAMFSVYDGHGGEEVALYCAKYLPDIIKDQKAYKEGKLQKALEDAFLAIDAKLTTEEVIKELAQIAGRPTEDEDEKEKVADEDDVDNEEAALLHEEATMTIEELLTRYGQNCHKGPPHSKSGGGTGEEPGSQGLNGEAGPEDSTRETPSQENGPTAKAYTGFSSNSERGTEAGQVGEPGIPTGEAGPSCSSASDKLPRVAKSKFFEDSEDESDEAEEEEEDSEECSEEEDGYSSEEAENEEDEDDTEEAEEDDEEEEEEMMVPGMEGKEEPGSDSGTTAVVALIRGKQLIVANAGDSRCVVSEAGKALDMSYDHKPEDEVELARIKNAGGKVTMDGRVNGGLNLSRAIGDHFYKRNKNLPPEEQMISALPDIKVLTLTDDHEFMVIACDGIWNVMSSQEVVDFIQSKISQRDENGELRLLSSIVEELLDQCLAPDTSGDGTGCDNMTCIIICFKPRNTAELQPESGKRKLEEVLSTEGAEENGNSDKKKKAKRD
notes: Serine/threonine protein phosphatase PPM1G (PP2Cγ), human; also called PP2Cγ; PPM1GGST; source: purified recombinant
B1: binds.
